From patent US20180118786A1 (ECOLE POLYTECHNIQUE FEDERALE DE LAUSANNE EPFL, published 2018)
Starred links: 1 amine or outer side, 2 acyl side, 3 side chain; linkers in the order of their positions; H or OH if unused. Positions of bridges follow the written chain, without caps; N, C: chain ends. Non-standard residues stand in square brackets, D forms with d. No end group written: not given here. TATA = O=C(CC[*:1])N1CN(C(=O)CC[*:2])CN(C(=O)CC[*:3])C1; Phe(4-NO2) = N[C@@H](Cc1ccc([N+](=O)[O-])cc1)C(=O)O; Phe(3-Me) = Cc1cccc(C[C@H](N)C(=O)O)c1; Phe(4-F) = N[C@@H](Cc1ccc(F)cc1)C(=O)O; Phe(2-F) = N[C@@H](Cc1ccccc1F)C(=O)O; 3Pal = N[C@@H](Cc1cccnc1)C(=O)O

B1: peptide 2 (FXII618 with a tryptophan appended to the C-terminus) (peptide)
peptide: RCFRLPCRQLRCRW-NH2
modifications: linker 2-7-12 via TATA; N-terminus assumed
SMILES: CC(C)C[C@@H]1NC(=O)[C@H](CCC(N)=O)NC(=O)[C@H](CCCNC(=N)N)NC(=O)[C@@H]2CSCCC(=O)N3CN(CN(C3)C(=O)CCSC[C@H](NC(=O)[C@@H](N)CCCNC(=N)N)C(=O)N[C@@H](Cc3ccccc3)C(=O)N[C@@H](CCCNC(=N)N)C(=O)N[C@@H](CC(C)C)C(=O)N3CCC[C@H]3C(=O)N2)C(=O)CCSC[C@@H](C(=O)N[C@@H](CCCNC(=N)N)C(=O)N[C@@H](Cc2c[nH]c3ccccc23)C(N)=O)NC(=O)[C@H](CCCNC(=N)N)NC1=O
B2: peptide 3 (peptide 2, Phe3 to tryptophan) (peptide)
peptide: RCWRLPCRQLRCRW-NH2
modifications: linker 2-7-12 via TATA; N-terminus assumed
SMILES: CC(C)C[C@@H]1NC(=O)[C@H](CCC(N)=O)NC(=O)[C@H](CCCNC(=N)N)NC(=O)[C@@H]2CSCCC(=O)N3CN(CN(C3)C(=O)CCSC[C@H](NC(=O)[C@@H](N)CCCNC(=N)N)C(=O)N[C@@H](Cc3c[nH]c4ccccc34)C(=O)N[C@@H](CCCNC(=N)N)C(=O)N[C@@H](CC(C)C)C(=O)N3CCC[C@H]3C(=O)N2)C(=O)CCSC[C@@H](C(=O)N[C@@H](CCCNC(=N)N)C(=O)N[C@@H](Cc2c[nH]c3ccccc23)C(N)=O)NC(=O)[C@H](CCCNC(=N)N)NC1=O
B3: peptide 52 (peptide 2, methyl group in meta-position of the phenyl ring of Phe3) (peptide)
peptide: RC[Phe(3-Me)]RLPCRQLRCRW-NH2
modifications: linker 2-7-12 via TATA; N-terminus assumed
SMILES: Cc1cccc(C[C@@H]2NC(=O)[C@@H](NC(=O)[C@@H](N)CCCNC(=N)N)CSCCC(=O)N3CN4CN(C3)C(=O)CCSC[C@H](NC(=O)[C@@H]3CCCN3C(=O)[C@H](CC(C)C)NC(=O)[C@H](CCCNC(=N)N)NC2=O)C(=O)N[C@@H](CCCNC(=N)N)C(=O)N[C@@H](CCC(N)=O)C(=O)N[C@@H](CC(C)C)C(=O)N[C@@H](CCCNC(=N)N)C(=O)N[C@H](C(=O)N[C@@H](CCCNC(=N)N)C(=O)N[C@@H](Cc2c[nH]c3ccccc23)C(N)=O)CSCCC4=O)c1
B4: peptide 54 (peptide 2, carbon replaced with nitrogen in meta-position of the phenyl ring of Phe3) (peptide)
peptide: RC[3Pal]RLPCRQLRCRW-NH2
modifications: linker 2-7-12 via TATA; N-terminus assumed
SMILES: CC(C)C[C@@H]1NC(=O)[C@H](CCC(N)=O)NC(=O)[C@H](CCCNC(=N)N)NC(=O)[C@@H]2CSCCC(=O)N3CN(CN(C3)C(=O)CCSC[C@H](NC(=O)[C@@H](N)CCCNC(=N)N)C(=O)N[C@@H](Cc3cccnc3)C(=O)N[C@@H](CCCNC(=N)N)C(=O)N[C@@H](CC(C)C)C(=O)N3CCC[C@H]3C(=O)N2)C(=O)CCSC[C@@H](C(=O)N[C@@H](CCCNC(=N)N)C(=O)N[C@@H](Cc2c[nH]c3ccccc23)C(N)=O)NC(=O)[C@H](CCCNC(=N)N)NC1=O
B5: peptide 56 (peptide 2, fluorine in ortho-position of Phe3) (peptide)
peptide: RC[Phe(2-F)]RLPCRQLRCRW-NH2
modifications: linker 2-7-12 via TATA; N-terminus assumed
SMILES: CC(C)C[C@@H]1NC(=O)[C@H](CCC(N)=O)NC(=O)[C@H](CCCNC(=N)N)NC(=O)[C@@H]2CSCCC(=O)N3CN(CN(C3)C(=O)CCSC[C@H](NC(=O)[C@@H](N)CCCNC(=N)N)C(=O)N[C@@H](Cc3ccccc3F)C(=O)N[C@@H](CCCNC(=N)N)C(=O)N[C@@H](CC(C)C)C(=O)N3CCC[C@H]3C(=O)N2)C(=O)CCSC[C@@H](C(=O)N[C@@H](CCCNC(=N)N)C(=O)N[C@@H](Cc2c[nH]c3ccccc23)C(N)=O)NC(=O)[C@H](CCCNC(=N)N)NC1=O
B6: peptide 58 (peptide 2, fluorine in para-position of Phe3) (peptide)
peptide: RC[Phe(4-F)]RLPCRQLRCRW-NH2
modifications: linker 2-7-12 via TATA
B7: peptide 60 (peptide 2, nitro group in para position of Phe3) (peptide)
peptide: RC[Phe(4-NO2)]RLPCRQLRCRW-NH2
modifications: linker 2-7-12 via TATA; also: description names 2-nitro-phenylalanine, example says para

Target: T1, human β-FXIIa (HFXIIAB; Molecular Innovations) (human, UniProt P00748 354-362; P00748 373-615, limits assumed)
T1 construct: domain: catalytic domain; Bought; also called human b-FXIIa; human FXIIa
Assay: protease inhibition assay, fluorogenic substrate

T1 sequence (P00748 373-615 limits assumed, one chain of several): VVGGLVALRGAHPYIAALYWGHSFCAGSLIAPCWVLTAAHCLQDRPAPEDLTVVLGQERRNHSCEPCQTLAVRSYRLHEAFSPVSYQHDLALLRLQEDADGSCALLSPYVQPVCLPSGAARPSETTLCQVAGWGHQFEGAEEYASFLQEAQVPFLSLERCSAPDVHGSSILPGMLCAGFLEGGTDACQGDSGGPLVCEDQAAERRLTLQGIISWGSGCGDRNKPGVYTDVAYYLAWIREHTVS

Row | Binder | Ki
1 | B1 | 26 nM
2 | B2 | 26 nM
3 | B3 | 10.4 nM
4 | B4 | 8.4 nM
5 | B5 | 13.1 nM
6 | B6 | 2.31 nM
7 | B7 | 4.5 nM
